According to patent publication US20210095032A1 (SALUBRIS CHENGDU BIOTECH, published 2021):
Like-named read-outs stand apart in the source and are kept apart here. Values belong to the binder of their own block, whether it stands above or below them.

Columns and labels:
[1] = target: T1, biotin-labeled human PD-1 Fc protein (human, biotin-labeled (site not stated)); assay: capture ELISA, antibody captured on plate, biotin-labeled human PD-1 Fc in solution
T1 construct: also called PD-1-Fc-biotin
Method: (§1) Plates were washed 4 times with wash buffer (PBS+0.05% Tween-20, PBST) and then blocked with 200 μl/well blocking buffer (5% w/v non-fatty milk in PBST) for 2 hours at 37° C. […] After a final wash, plates were incubated with 100 μl/well ELISA substrate TMB (Innoreagents). The reaction was stopped in 15 minutes at 25° C. with 50 μl/well 1M H₂SO₄, and the absorbance was read at 450 nm. Data were analyzed using Graphpad Prism software and EC₅₀ values were reported.

[2] = target: T2, cynomolgus monkey PD-1-his protein (Acro biosystems, #PD-1-05223) (cynomolgus monkey, UniProt B0LAJ3 25-170); assay: SPR (Biacore), antibody captured, cynomolgus PD-1-his flowed
T2 construct: Bought protein; also called Cynomolgus PD-1; Cynomolgus PD1
Description: (§2) Briefly, goat anti-mouse IgG (GE healthcare, Cat #BR100839, Human Antibody Capture Kit) was covalently linked to a CMS chip (carboxy methyl dextran coated chip) via primary amines, using a standard amine coupling kit (GE healthcare, Pittsburgh, Pa., USA) provided by Biacore. Un-reacted moieties on the biosensor surface were blocked with ethanolamine. […] Then, recombinant human PD-1-his (Sino biological, #10377-H08H) or cynomolgus monkey PD-1-his protein (Acro biosystems, #PD-1-05223) in HBS EP buffer (provided by Biacore) was flowed onto the chip at a flow rate of 30 μL/min. The antigen-antibody association kinetics was followed for 2 minutes and the dissociation kinetics was followed for 10 minutes. The association and dissociation curves were fit to a 1:1 Langmuir binding model using BIA evaluation software.

[3] = target: T1, biotin-labeled human PD-1 Fc protein; assay: competition ELISA, antibody + biotin human PD-1 Fc on coated Nivolumab (competitor Nivolumab)
Method: (§3) The next day, plates were washed with wash buffer, and blocked with 5% non-fatty milk in PBST for 2 hours at 37° C. […] Plates were finally washed using wash buffer. TMB was added and the reaction was stopped using 1M H₂SO₄, and the absorbance was read at 450 nm. Data were analyzed using Graphpad Prism software and IC₅₀ values were reported.

[4] = target: T1, biotin-labeled human PD-1 Fc protein; assay: capture ELISA, antibody captured on plate, biotin-labeled human PD-1 Fc in solution; remark: listed apart in the source
Method: as §1

[5] = target: T3, human PD-1 on PD-1 Effector Cell Line (Genscript, GS-J2/PD-1) (human, UniProt Q15116 25-288); assay: cell-based or functional assay
[6] = target: T1, biotin-labeled human PD-1 Fc protein; assay: competition ELISA, antibody + biotin human PD-1-Fc on coated human PD-L1-Fc (competitor PD-L1-Fc)
Method: (§4) The next day, plates were washed with wash buffer (PBS+0.05% Tween-20, PBST), and blocked with 5% non-fatty milk in PBST for 2 hours at 37° C. Plates were then washed again using wash buffer.
(§5) After incubation at 37° C. for 40 minutes, plates were washed for 4 times using wash buffer. […] Plates were washed again using wash buffer. Finally, TMB was added and the reaction was stopped using 1M H₂SO₄, and the absorbance was read at 450 nm. Data were analyzed using Graphpad Prism software and IC₅₀ values were reported.

[7] = target: T4, recombinant human PD-1-his (Sino biological, #10377-H08H) (human, UniProt Q15116 25-167); assay: SPR (Biacore), antibody captured, human PD-1-his flowed
T4 construct: Bought protein; also called Human PD-1-his protein; not shown: his tag
Description: as §2

[8] = target: T1, biotin-labeled human PD-1 Fc protein; assay: competition ELISA, antibody + biotin human PD-1-Fc on coated human PD-L1-Fc (competitor PD-L1-Fc); remark: listed apart in the source
Method: as §4, §5

[9] = target: T1, biotin-labeled human PD-1 Fc protein; assay: capture ELISA, antibody captured on plate, biotin-labeled human PD-1 Fc in solution; remark: listed apart in the source
Method: as §1

[10] = target: T1, biotin-labeled human PD-1 Fc protein; assay: as above; remark: listed apart in the source
Method: as §1

[11] = target: T3, human PD-1 on PD-1 Effector Cell Line …; assay: cell-based or functional assay; remark: listed apart in the source
[12] = target: T1, biotin-labeled human PD-1 Fc protein; assay: capture ELISA, antibody captured on plate, biotin-labeled human PD-1 Fc in solution; remark: listed apart in the source
Method: as §1

[13] = target: T1, biotin-labeled human PD-1 Fc protein; assay: as above; remark: listed apart in the source
Method: as §1

[14] = target: T3, human PD-1 on PD-1 Effector Cell Line …; assay: cell-based or functional assay; remark: listed apart in the source
[15] = target: T1, biotin-labeled human PD-1 Fc protein; assay: competition ELISA, antibody + biotin human PD-1 Fc on coated Nivolumab (competitor Nivolumab); remark: listed apart in the source
Method: as §3

[16] = target: T1, biotin-labeled human PD-1 Fc protein; assay: capture ELISA, antibody captured on plate, biotin-labeled human PD-1 Fc in solution; remark: listed apart in the source
Method: as §1

[17] = target: T1, biotin-labeled human PD-1 Fc protein; assay: competition ELISA, antibody + biotin human PD-1 Fc on coated Nivolumab (competitor Nivolumab); remark: listed apart in the source
Method: as §3

[18] = target: T1, biotin-labeled human PD-1 Fc protein; assay: competition ELISA, antibody + biotin human PD-1-Fc on coated human PD-L1-Fc (competitor PD-L1-Fc); remark: listed apart in the source
Method: as §4, §5

[19] = target: T2, cynomolgus monkey PD-1-his protein …; assay: SPR (Biacore T200), antibody captured, PD-1-his flowed, 1:1 Langmuir fit
Description: as §2

[20] = target: T4, recombinant human PD-1-his (Sino …); assay: as above
Description: as §2

[21] = target: T1, biotin-labeled human PD-1 Fc protein; assay: capture ELISA, antibody captured on plate, biotin-labeled human PD-1 Fc in solution; remark: listed apart in the source
Method: as §1

B1: huD2A4-V5 (antibody, human IgG1, kappa)
heavy: not shown
light: DIQMTQSPSSVSASVGDRVTITCLASQTIGTWLAWYQQKPGKSPKLLIYAATSLADGVPSRFSGSGSGTDFTLTISSLQPEDFATYYCQQVSSIPWTFGGGTKVEIKRTVAAPSVFIFPPSDEQLKSGTASVVCLLNNFYPREAKVQWKVDNALQSGNSQESVTEQDSKDSTYSLSSTLTLSKADYEKHKVYACEVTHQGLSSPVTKSFNRGEC
notes: Humanized D2A4, human IgG1/kappa
- EC50 [1]: 0.773 ng/mL

B2: huD2A4-V6 (antibody, human IgG1, kappa, V domains shown)
VH: EVQLVESGGGLVQPGGSLRLSCAASGFTFSSYTMSWVRQAPGKGLEWVSTISGGGSNTYYPDSVKGRFTISRDNSKNTLYLQMNSLRAEDTAVYYCARQAFYSNYWYFDVWGKGTTVTVSS
VL: DIQMTQSPSSVSASVGDRVTITCLASQTIGTWLAWYQQKPGKAPKLLIYAATSLADGVPSRFSGSGSGTDFTLTISSLQPEDFATYYCQQVSSIPWTFGGGTKVEIKR
notes: as for B1
- Kd [2]: 6430 pM
- IC50 [3]: 490 pM
- EC50 [4]: 270 pM
- Cell-based functional assay (EC50, nM) [5]: 7.6 nM
- IC50 [6]: 1690 pM
- Kd [7]: 3060 pM
- EC50 [1]: 0.999 ng/mL

B4: chimeric D2H3 antibody (antibody, human IgG1, kappa, V domains shown)
VH: EVQLQQSGTVLARPGASVKMSCKSSGYTFTNYWMHWVKQRPGQGLEWIGAIFPRNSETNYNQKFKAKAKLTAVTSASTAYMEVSSLTSEDSAVYFCTRNRYGLDYWGQGTSVTVSS
VL: DIVLTQSPGFLAVSLGQRATISCRASESVSLHGTRLMHWYHQKPGQPPKLLISLGSNLESGVPARFSGSGSETDFTLNIHPVEEEDAATYFCQQSIEDPWTFGGGTKLEIKR
notes: Mouse variable domains cloned in frame to human IgG1 and kappa constant regions; also called chD2H3
- IC50 [8]: 740 pM
- EC50 [9]: 1.04 ng/mL
- EC50 [10]: 1.51 ng/mL
- Kd [2]: 1780 pM
- Cell-based functional reporter assay (IC50, nM) [11]: 5.36 nM
- EC50 [12]: 0.31 ng/mL
- EC50 [13]: 170 pM
- IC50 [3]: 190 pM
- EC50 [4]: 170 pM
- IC50 [15]: 190 pM
- Cell-based functional assay (EC50, nM) [5]: 5.36 nM
- IC50 [6]: 740 pM
- Kd [7]: 441 pM

B5: Nivolumab (OPDIVO®) (antibody, V domains shown)
VH: QVQLVESGGGVVQPGRSLRLDCKASGITFSNSGMHWVRQAPGKGLEWVAVIWYDGSKRYYADSVKGRFTISRDNSKNTLFLQMNSLRAEDTAVYYCATNDDYWGQGTLVTVSS
VL: EIVLTQSPATLSLSPGERATLSCRASQSVSSYLAWYQQKPGQAPRLLIYDASNRATGIPARFSGSGSGTDFTLTISSLEPEDFAVYYCQQSSNWPRTFGQGTKVEIK
- EC50 [9]: 0.27 ng/mL
- EC50 [10]: 0.365 ng/mL
- EC50 [12]: 1.37 ng/mL
- EC50 [4]: 450 pM
- IC50 [6]: 420 pM
- EC50 [16]: 210 pM
- IC50 [17]: 3790 pM
- EC50 [1]: 0.268 ng/mL
- EC50 [21]: 0.351 ng/mL

B7: chimeric D2A4 antibody (antibody, human IgG1, kappa, V domains shown)
VH: EVKLVESGGGLVKPGGSLKLSCAASGFTFSSYTMSWVRQTPAKRLEWVATISGGGSNTYYPDSVKGRFTISRDNARNTLYLQMSSLRSEDTAMYYCARQAFYSNYWYFDVWGAGTTVTVSS
VL: DIQMTQSPASQSASLGESVTITCLASQTIGTWLAWYQQTPGKSPQLLIYAATSLADGVPSRFSGSGSGTKFSFKISSLQAEDFASYYCQQVSSIPWTFGGGTKLEIRR
notes: Mouse variable domains cloned in frame to human IgG1 and kappa constant regions; also called chD2A4; ChD2A4
- IC50 [8]: 1710 pM
- Cell-based functional reporter assay (IC50, nM) [11]: 9.46 nM
- EC50 [13]: 240 pM
- IC50 [3]: 350 pM
- EC50 [4]: 240 pM
- IC50 [15]: 350 pM
- Cell-based functional assay (EC50, nM) [5]: 9.46 nM
- IC50 [6]: 1710 pM
- EC50 [1]: 0.773 ng/mL
- EC50 [21]: 0.681 ng/mL

More lines, now with the values ahead:

- IC50 [8]: 890 pM
- EC50 [9]: 0.18 ng/mL
- EC50 [10]: 0.229 ng/mL
- Kd [2]: 1460 pM
- Cell-based functional reporter assay (IC50, nM) [11]: 8.48 nM
- EC50 [12]: 0.388 ng/mL
- EC50 [13]: 170 pM
- Reporter Activation (EC50, nM), human PD-1 cell (NFAT-luc)/human PD-L1 cell [14]: 3.02 nM
- IC50 [3]: 210 pM
- EC50 [4]: 170 pM
- IC50 [15]: 210 pM
- Cell-based functional assay (EC50, nM) [5]: 8.48 nM
- IC50 [6]: 890 pM
- EC50 [16]: 150 pM
- Kd [7]: 373 pM
- IC50 [17]: 760 pM
- IC50 [18]: 190 pM
- Kd [19]: 1460 pM
- koff [19]: 0.000308 s⁻¹
- kon [19]: 211000 M⁻¹ s⁻¹
- Kd [20]: 373 pM
- koff [20]: 0.000122 s⁻¹
- kon [20]: 326000 M⁻¹ s⁻¹
B3: mouse anti-PD-1 monoclonal antibody D2H3 (antibody, V domains shown)
VH: B4 VH
VL: DIVLTQSPGFLAVSLGQRATISCRASESVSLHGTRLMHWYHQKPGQPPKLLISLGSNLESGVPARFSGSGSETDFTLNIHPVEEEDAATYFCQQSIEDPWTFGGGTKLEIK
notes: Mouse antibody purified from a hybridoma; also called Mouse D2H3; mouse D2H3

- IC50 [8]: 1510 pM
- Kd [2]: 6570 pM
- Cell-based functional reporter assay (IC50, nM) [11]: 6.18 nM
- EC50 [13]: 130 pM
- Reporter Activation (EC50, nM), human PD-1 cell (NFAT-luc)/human PD-L1 cell [14]: 8.1 nM
- IC50 [3]: 330 pM
- EC50 [4]: 130 pM
- IC50 [15]: 330 pM
- Cell-based functional assay (EC50, nM) [5]: 6.18 nM
- IC50 [6]: 1510 pM
- EC50 [16]: 190 pM
- Kd [7]: 2550 pM
- IC50 [17]: 2220 pM
- IC50 [18]: 170 pM
- Kd [19]: 6570 pM
- koff [19]: 0.000793 s⁻¹
- kon [19]: 121000 M⁻¹ s⁻¹
- Kd [20]: 2550 pM
- koff [20]: 0.000401 s⁻¹
- kon [20]: 157000 M⁻¹ s⁻¹
- EC50 [21]: 0.281 ng/mL
B6: mouse anti-PD-1 monoclonal antibody D2A4 (antibody, V domains shown)
VH: B7 VH
VL: DIQMTQSPASQSASLGESVTITCLASQTIGTWLAWYQQTPGKSPQLLIYAATSLADGVPSRFSGSGSGTKFSFKISSLQAEDFASYYCQQVSSIPWTFGGGTKLEIR
notes: Mouse antibody purified from a hybridoma; also called Mouse D2A4; mouse D2A4

- Kd [2]: 1500 pM
- EC50 [12]: 0.531 ng/mL
- IC50 [3]: 180 pM
- EC50 [4]: 170 pM
- Cell-based functional assay (EC50, nM) [5]: 7.11 nM
- IC50 [6]: 680 pM
- Kd [7]: 308 pM
B8: huD2H3-V14 (antibody, human IgG1, kappa, V domains shown)
VH: EVQLVQSGAEVKKPGSSVKVSCKASGYTFTNYWMHWVRQAPGQGLEWMGAIFPRNSETNYNQKFKARVTITADESTSTAYMELSSLRSEDTAVYYCTRNRYGLDYWGQGTLVTVSS
VL: DIVMTQSPDSLAVSLGERATINCRASESVSLHGTRLMHWYQQKPGQPPKLLIYLGSNLESGVPDRFSGSGSGTDFTLTISSLQAEDVAVYYCQQSIEDPWTFGQGTKLEIKR
notes: Humanized D2H3, human IgG1/kappa
